According to article PMC3377666:

Experiments:
[1] = target: recombinant human Pol δ holoenzyme (heterotetramer p125/p50/p68/p12) (human) (UniProt P28340)
[2] = target: recombinant human Pol δ core dimer (p125/p50) (human) (UniProt P28340)
[3] = target: recombinant human Pol δ core+p68 trimer (p125/p50/p68) (human) (UniProt P28340)
[4] = target: recombinant human Pol δ core+p12 trimer (p125/p50/p12) (human) (UniProt P28340)
Sequence of recombinant human Pol δ core+p12 trimer (p125/p50/p12) (human) (P28340 whole entry, stated change not applied, chain 1 of 3): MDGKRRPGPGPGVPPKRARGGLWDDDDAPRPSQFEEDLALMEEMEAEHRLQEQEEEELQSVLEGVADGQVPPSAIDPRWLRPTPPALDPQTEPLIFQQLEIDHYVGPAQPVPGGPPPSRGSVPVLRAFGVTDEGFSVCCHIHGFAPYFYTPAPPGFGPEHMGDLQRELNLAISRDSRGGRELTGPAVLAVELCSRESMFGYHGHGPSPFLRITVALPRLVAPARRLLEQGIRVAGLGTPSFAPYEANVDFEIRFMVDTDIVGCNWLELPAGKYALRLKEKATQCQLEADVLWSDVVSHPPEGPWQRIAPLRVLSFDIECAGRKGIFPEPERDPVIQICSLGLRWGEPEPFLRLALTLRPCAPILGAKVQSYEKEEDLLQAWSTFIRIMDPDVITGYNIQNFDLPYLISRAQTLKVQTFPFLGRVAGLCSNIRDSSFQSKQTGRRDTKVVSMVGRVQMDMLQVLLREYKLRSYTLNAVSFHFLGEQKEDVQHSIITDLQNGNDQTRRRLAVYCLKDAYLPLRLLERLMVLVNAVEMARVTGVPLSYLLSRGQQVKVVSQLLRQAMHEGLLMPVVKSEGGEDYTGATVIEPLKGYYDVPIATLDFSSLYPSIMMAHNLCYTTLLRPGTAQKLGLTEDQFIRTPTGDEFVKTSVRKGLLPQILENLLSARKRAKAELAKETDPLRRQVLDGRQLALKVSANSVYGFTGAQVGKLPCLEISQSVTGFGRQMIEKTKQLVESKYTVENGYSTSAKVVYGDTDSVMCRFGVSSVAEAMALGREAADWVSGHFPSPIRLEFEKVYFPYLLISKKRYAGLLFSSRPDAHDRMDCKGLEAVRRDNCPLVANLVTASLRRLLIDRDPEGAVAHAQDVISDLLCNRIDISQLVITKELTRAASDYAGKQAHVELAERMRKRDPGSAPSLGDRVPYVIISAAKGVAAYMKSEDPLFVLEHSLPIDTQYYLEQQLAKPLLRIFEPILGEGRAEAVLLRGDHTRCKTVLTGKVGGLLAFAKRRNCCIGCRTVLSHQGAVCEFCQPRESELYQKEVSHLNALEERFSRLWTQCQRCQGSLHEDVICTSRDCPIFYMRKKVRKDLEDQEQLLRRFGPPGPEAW
Sequence of recombinant human Pol δ core+p12 trimer (p125/p50/p12) (human) (P49005 whole entry, stated change not applied, chain 2 of 3, further chain): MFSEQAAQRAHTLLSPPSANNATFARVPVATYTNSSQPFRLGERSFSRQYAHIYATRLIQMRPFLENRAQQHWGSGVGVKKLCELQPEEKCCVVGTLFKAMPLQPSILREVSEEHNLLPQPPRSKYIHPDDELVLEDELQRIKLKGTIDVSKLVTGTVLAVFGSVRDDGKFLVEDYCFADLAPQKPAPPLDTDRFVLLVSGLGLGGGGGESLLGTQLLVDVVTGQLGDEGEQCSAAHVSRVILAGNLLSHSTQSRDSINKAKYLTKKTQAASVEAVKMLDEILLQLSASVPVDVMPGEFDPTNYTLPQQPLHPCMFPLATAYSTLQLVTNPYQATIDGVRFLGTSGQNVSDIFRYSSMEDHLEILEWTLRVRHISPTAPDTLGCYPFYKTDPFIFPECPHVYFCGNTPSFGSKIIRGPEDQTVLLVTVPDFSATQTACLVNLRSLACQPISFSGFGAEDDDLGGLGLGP
Sequence of recombinant human Pol δ core+p12 trimer (p125/p50/p12) (human) (Q9HCU8 whole entry, stated change not applied, chain 3 of 3, further chain): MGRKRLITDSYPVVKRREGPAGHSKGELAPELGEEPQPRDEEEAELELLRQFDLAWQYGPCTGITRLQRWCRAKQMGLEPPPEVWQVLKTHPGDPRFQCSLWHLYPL

Sequence of recombinant human PCNA (Proliferating Cell Nuclear Antigen) (P12004 whole entry): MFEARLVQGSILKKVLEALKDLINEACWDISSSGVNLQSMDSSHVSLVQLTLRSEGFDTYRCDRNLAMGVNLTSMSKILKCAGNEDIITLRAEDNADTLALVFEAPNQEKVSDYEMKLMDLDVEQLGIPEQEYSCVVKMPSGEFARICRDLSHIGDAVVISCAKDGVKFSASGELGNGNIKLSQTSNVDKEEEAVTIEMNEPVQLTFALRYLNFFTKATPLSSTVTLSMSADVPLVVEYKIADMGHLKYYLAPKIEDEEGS
Sequence of recombinant human Pol δ holoenzyme (heterotetramer p125/p50/p68/p12) (human) (P28340 whole entry, stated change not applied, chain 1 of 4): as the sequence (P28340 whole entry, stated change not applied, chain 1 of 3) above
Sequence of recombinant human Pol δ holoenzyme (heterotetramer p125/p50/p68/p12) (human) (P49005 whole entry, stated change not applied, chain 2 of 4, further chain): as the sequence (P49005 whole entry, stated change not applied, chain 2 of 3, further chain) above
Sequence of recombinant human Pol δ holoenzyme (heterotetramer p125/p50/p68/p12) (human) (Q15054 whole entry, stated change not applied, chain 3 of 4, further chain): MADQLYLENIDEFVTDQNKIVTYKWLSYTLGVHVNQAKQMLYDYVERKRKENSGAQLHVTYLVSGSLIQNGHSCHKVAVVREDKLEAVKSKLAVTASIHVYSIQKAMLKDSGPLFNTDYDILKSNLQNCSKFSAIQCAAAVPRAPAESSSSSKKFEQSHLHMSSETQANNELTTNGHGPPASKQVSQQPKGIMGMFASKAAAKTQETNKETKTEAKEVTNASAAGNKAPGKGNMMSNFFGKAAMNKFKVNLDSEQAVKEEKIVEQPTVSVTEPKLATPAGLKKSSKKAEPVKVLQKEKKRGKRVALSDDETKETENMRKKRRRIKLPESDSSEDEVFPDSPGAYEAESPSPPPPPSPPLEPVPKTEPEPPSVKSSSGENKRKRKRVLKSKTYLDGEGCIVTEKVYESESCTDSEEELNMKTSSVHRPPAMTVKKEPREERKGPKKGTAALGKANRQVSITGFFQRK
Sequence of recombinant human Pol δ holoenzyme (heterotetramer p125/p50/p68/p12) (human) (Q9HCU8 whole entry, stated change not applied, chain 4 of 4, further chain): as the sequence (Q9HCU8 whole entry, stated change not applied, chain 3 of 3, further chain) above
Sequence of recombinant human Pol δ core dimer (p125/p50) (human) (P28340 whole entry, stated change not applied, chain 1 of 2): as the sequence (P28340 whole entry, stated change not applied, chain 1 of 3) above
Sequence of recombinant human Pol δ core dimer (p125/p50) (human) (P49005 whole entry, stated change not applied, chain 2 of 2, further chain): as the sequence (P49005 whole entry, stated change not applied, chain 2 of 3, further chain) above
Sequence of recombinant human Pol δ core+p68 trimer (p125/p50/p68) (human) (P28340 whole entry, stated change not applied, chain 1 of 3): as the sequence (P28340 whole entry, stated change not applied, chain 1 of 3) above
Sequence of recombinant human Pol δ core+p68 trimer (p125/p50/p68) (human) (P49005 whole entry, stated change not applied, chain 2 of 3, further chain): as the sequence (P49005 whole entry, stated change not applied, chain 2 of 3, further chain) above
Sequence of recombinant human Pol δ core+p68 trimer (p125/p50/p68) (human) (Q15054 whole entry, stated change not applied, chain 3 of 3, further chain): as the sequence (Q15054 whole entry, stated change not applied, chain 3 of 4, further chain) above

apparent Kd for PCNA: PCNA concentration for half-maximal stimulation of polymerase activity on poly(dA)/oligo(dT), hyperbolic fit [1]: 7.1 nM trimer
apparent Kd for PCNA: PCNA concentration for half-maximal stimulation of polymerase activity on poly(dA)/oligo(dT), hyperbolic fit [2]: 73 nM trimer
apparent Kd for PCNA: PCNA concentration for half-maximal stimulation of polymerase activity on poly(dA)/oligo(dT), hyperbolic fit [3]: 9.3 nM trimer
apparent Kd for PCNA: PCNA concentration for half-maximal stimulation of polymerase activity on poly(dA)/oligo(dT), hyperbolic fit [4]: 8.7 nM trimer
Substance: recombinant human PCNA (Proliferating Cell Nuclear Antigen) (from UniProt P12004 1-261) (natural protein)
